# Paper PMC9687798, “Atypical Substrates of the Organic Cation Transporter 1” (Biomolecules, 2022)
# Where “and” joins values, the source holds several entries; their conditions need not be identical. Equal values may be shown once.
# T1: wild-type human OCT2 (Homo sapiens, UniProt O15244)
# T1 sequence (O15244 1-555): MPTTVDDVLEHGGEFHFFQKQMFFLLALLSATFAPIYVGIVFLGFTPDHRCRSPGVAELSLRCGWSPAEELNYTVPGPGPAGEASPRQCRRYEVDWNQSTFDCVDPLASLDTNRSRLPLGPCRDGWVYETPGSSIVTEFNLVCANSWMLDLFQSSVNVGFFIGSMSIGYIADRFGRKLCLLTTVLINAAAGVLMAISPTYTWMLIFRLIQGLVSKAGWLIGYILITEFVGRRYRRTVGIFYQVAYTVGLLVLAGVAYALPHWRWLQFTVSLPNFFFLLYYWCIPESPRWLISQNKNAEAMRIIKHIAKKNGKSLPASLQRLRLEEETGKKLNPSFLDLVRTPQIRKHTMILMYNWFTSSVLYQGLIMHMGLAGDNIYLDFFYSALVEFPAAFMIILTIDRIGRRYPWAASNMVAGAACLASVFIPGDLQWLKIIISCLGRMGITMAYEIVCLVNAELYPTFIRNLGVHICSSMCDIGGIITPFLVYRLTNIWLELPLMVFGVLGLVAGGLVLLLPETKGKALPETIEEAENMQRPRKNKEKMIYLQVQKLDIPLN
# T2: OCT3 (Homo sapiens, UniProt O75751)
# T2 construct: expressed in transfected cells; host or cells: HEK293, stably transfected; gift from Dr. Koepsell and Dr. Gorbulev (University of Würzburg)
# T2 sequence (O75751 1-556): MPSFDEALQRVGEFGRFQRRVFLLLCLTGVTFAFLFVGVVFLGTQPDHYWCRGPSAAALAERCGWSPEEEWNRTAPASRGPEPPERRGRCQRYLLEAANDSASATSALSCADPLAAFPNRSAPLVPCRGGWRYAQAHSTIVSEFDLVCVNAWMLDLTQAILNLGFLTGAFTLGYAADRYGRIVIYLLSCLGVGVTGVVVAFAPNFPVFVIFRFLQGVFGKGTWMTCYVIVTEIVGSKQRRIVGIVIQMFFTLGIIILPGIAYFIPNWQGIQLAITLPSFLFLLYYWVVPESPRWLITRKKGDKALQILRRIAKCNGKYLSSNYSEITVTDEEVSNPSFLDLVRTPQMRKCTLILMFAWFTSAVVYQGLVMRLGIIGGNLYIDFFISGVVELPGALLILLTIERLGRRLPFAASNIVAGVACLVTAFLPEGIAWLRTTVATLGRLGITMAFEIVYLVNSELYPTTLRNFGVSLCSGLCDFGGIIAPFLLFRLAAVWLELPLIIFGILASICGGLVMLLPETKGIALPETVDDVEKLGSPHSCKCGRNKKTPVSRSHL
# T3: human OCT1*1 (wild-type) (Homo sapiens, UniProt O15245)
# T3 sequence (O15245 1-554): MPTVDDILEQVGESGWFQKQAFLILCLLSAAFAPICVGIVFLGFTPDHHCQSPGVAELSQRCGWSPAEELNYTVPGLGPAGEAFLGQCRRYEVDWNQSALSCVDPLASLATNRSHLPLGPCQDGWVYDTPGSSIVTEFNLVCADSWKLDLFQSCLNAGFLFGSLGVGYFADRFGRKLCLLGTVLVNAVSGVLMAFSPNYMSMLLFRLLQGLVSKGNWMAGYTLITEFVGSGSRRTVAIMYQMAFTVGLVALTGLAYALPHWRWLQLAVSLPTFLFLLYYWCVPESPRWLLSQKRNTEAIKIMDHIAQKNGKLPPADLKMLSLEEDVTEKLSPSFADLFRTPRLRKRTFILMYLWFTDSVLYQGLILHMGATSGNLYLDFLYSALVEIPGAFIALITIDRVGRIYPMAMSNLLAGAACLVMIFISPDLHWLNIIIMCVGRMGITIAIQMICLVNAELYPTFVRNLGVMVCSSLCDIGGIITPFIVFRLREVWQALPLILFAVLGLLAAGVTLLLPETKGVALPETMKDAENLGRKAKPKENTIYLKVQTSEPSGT
# B1: human OCT1*1 (wild-type) (Homo sapiens) (protein)
# chain: T3 sequence (O15245 1-554)
# Key:
# wild-type human OCT2 = target: T1, wild-type human OCT2; experiment: Cellular uptake ratio, OCT2-overexpressing HEK293 cells vs empty vector; assay type: cell-based; details: based on ratio uptake data at 1 µM
# Method: (§1) The wild-type cell lines of OCT1 and OCT2, as well as the variant cell lines OCT1*2 and *3, were generated using the Flp-In system (Thermo Fisher Scientific, Darmstadt, Germany) as described in previous publications. The cell line overexpressing OCT3 was a kind gift from Dr. Koepsell and Dr. Gorbulev (University of Würzburg, Germany). Cells transfected with the empty pcDNA5/FRT vector were used for the transport experiments as a control cell line. All cells were cultured approximately up to passage 30.
# (§2) Forty-eight hours before the transport experiments, 600,000 cells were plated on 12-well plates pre-coated with poly-D-lysine and incubated at 37 °C with 5% CO2. The prepared 12-well plate with cells was positioned on a heating plate pre-warmed to 37 °C. After removing the medium, the cells were washed with 37 °C HBSS+ (10 mM HEPES in Hank’s balanced salt solution, pH 7.4). Then, one pre-defined concentration of a substrate was added to each well. The incubation period was stopped by adding 2 mL of 4 °C HBSS+ and removing the cells from the heating plate. The cells were washed twice with 4 °C HBSS+. For cell lysis, the cells were incubated for 15 min with 500 µL of 80% acetonitrile (LGC Standards, Wesel, Germany), which contained a respective internal standard (Table 1).
# (§3) For concentration-dependent transport, the cells were incubated with defined substrate concentrations (0.1, 1, 10, 30, 100, 300, 600, 1000 µM) for the respective pre-defined incubation times. […] The uptake by a transporter was normalised to the uptake by empty vector-transfected cells. […] The results of transport experiments were normalized to the total protein concentration per well. Total protein quantification was performed using a bicinchoninic acid assay with bovine serum albumin as standard.
# (§4) The ratios of cellular uptake were calculated by dividing the total uptake of transporter-overexpressing cells by the total uptake into empty vector transfected cells. The concentration-dependent cellular net uptake was used for analysis of transport kinetics by subtracting for each substrate concentration the uptake of empty vector-transfected cells from the uptake of transporter-overexpressing cells. […] The intrinsic clearance Clint was expressed with the ratio of Vmax and KM.
# OCT3 = target: T2, OCT3; experiment: Cellular uptake ratio, OCT3-overexpressing HEK293 cells vs empty vector; assay type: cell-based; details: for OCT3 transport category: based on ratio uptake data at 1 µM
# Method: as §1, §2, §3, §4
# human OCT1*1 (wild-type) [1] = target: T3, human OCT1*1 (wild-type); experiment: Concentration-dependent uptake (transport kinetics) in HEK293 cells overexpressing OCT1 wild-type; details: for Clint (±SEM): intrinsic clearance = ratio of Vmax and KM, OCT1 wild-type
# [2] = Human pharmacokinetic background values; assay type: in vivo; details: blood, conversion of the KM of about 60 µM, read-out: blood concentration corresponding to KM
# human OCT1*1 (wild-type) [3] = target: T3, human OCT1*1 (wild-type); experiment: Cellular uptake ratio, OCT1-overexpressing HEK293 cells vs empty vector; assay type: cell-based; details: for OCT1 transport category: based on ratio uptake data at 1 µM
# Method: as §1, §2, §3, §4
# [4] = human; no reference given; cited from earlier work
# hCMEC/D3 = details: BBB-representing cell line hCMEC/D3; cited from earlier work
# OCT1 (wild-type, OCT1*1) = OCT1 (wild-type, OCT1*1) (Homo sapiens, UniProt O15245); experiment: Concentration-dependent uptake (transport kinetics) in HEK293 cells overexpressing OCT1 wild-type; details: human, HEK293 cells stably overexpressing human OCT1*1 (wild-type), pH 7.4, KM (±SEM), net uptake (OCT1 minus empty vector), HEK293, 0.1-1000 µM substrate, Michaelis–Menten
# [5] = substrate: N=C(N)c1ccc(OCCCCCOc2ccc(C(=N)N)cc2)cc1; experiment: cells, lysate or membranes; details: other: net uptake (OCT1 minus empty vector), HEK293, 0.1-1000 µM substrate, Michaelis–Menten; pH 7.4
# [6] = substrate: CNS(=O)(=O)Cc1ccc2[nH]cc(CCN(C)C)c2c1; experiment: cells, lysate or membranes; details: other: net uptake (OCT1 minus empty vector), HEK293, 0.1-1000 µM substrate, Michaelis–Menten; pH 7.4
# [7] = substrate: N[C@@H](Cc1ccc(O)c(O)c1)C(=O)O; experiment: cells, lysate or membranes; details: other: net uptake (OCT1 minus empty vector), HEK293, 0.1-1000 µM substrate, Michaelis–Menten; pH 7.4
# [8] = substrate: C[N+]1(C)CCC[C@H]1C(=O)[O-]; experiment: cells, lysate or membranes; details: other: net uptake (OCT1 minus empty vector), HEK293, 0.1-1000 µM substrate, Michaelis–Menten; pH 7.4
# [9] = substrate: C[C@H]1COc2c(N3CCN(C)CC3)c(F)cc3c(=O)c(C(=O)O)cn1c23; experiment: cells, lysate or membranes; details: other: net uptake (OCT1 minus empty vector), HEK293, 0.1-1000 µM substrate, Michaelis–Menten; pH 7.4
# [10] = substrate: CCCCC[C@H](O)/C=C/[C@H]1[C@H](O)CC(=O)[C@@H]1C/C=C\CCCC(=O)O; experiment: cells, lysate or membranes; details: pH 7.4
# [11] = substrate: Nc1nc(=O)n([C@@H]2CS[C@H](CO)O2)cc1F; experiment: cells, lysate or membranes; details: other: net uptake (OCT1 minus empty vector), HEK293, 0.1-1000 µM substrate, Michaelis–Menten; pH 7.4
# [12] = substrate: Nc1nc2c(ncn2COCCO)c(=O)[nH]1; experiment: cells, lysate or membranes; details: other: net uptake (OCT1 minus empty vector), HEK293, 0.1-1000 µM substrate, Michaelis–Menten; pH 7.4
# [13] = substrate: Nc1ccn([C@@H]2CS[C@H](CO)O2)c(=O)n1; experiment: cells, lysate or membranes; details: other: net uptake (OCT1 minus empty vector), HEK293, 0.1-1000 µM substrate, Michaelis–Menten; pH 7.4
# [14] = substrate: Nc1ccn([C@H]2CC[C@@H](CO)O2)c(=O)n1; experiment: cells, lysate or membranes; details: other: net uptake (OCT1 minus empty vector), HEK293, 0.1-1000 µM substrate, Michaelis–Menten; pH 7.4
# [15] = substrate: C[C@](N)(Cc1ccc(O)c(O)c1)C(=O)O; experiment: cells, lysate or membranes; details: other: net uptake (OCT1 minus empty vector), HEK293, 0.1-1000 µM substrate, Michaelis–Menten; pH 7.4
# [16] = substrate: COc1cc(Cc2cnc(N)nc2N)cc(OC)c1OC; experiment: cells, lysate or membranes; details: other: net uptake (OCT1 minus empty vector), HEK293, 0.1-1000 µM substrate, Michaelis–Menten; pH 7.4
# [17] = other: net uptake (OCT1 minus empty vector), HEK293, 0.1-1000 µM substrate, Michaelis–Menten
molecule,measurement,setting,value
"CNS(=O)(=O)Cc1ccc2[nH]cc(CCN(C)C)c2c1 [Sumatriptan, sumatriptan]",OCT2 transport category,wild-type human OCT2,++ (very good substrates of OCTs that have an intrinsic clearance >15 or show an uptake ratio >10)
same,uptake by OCT3 (normalised to empty vector),OCT3; 1 µM substance,relevant uptake
same,OCT3 transport category,OCT3,+ (good substrates of OCTs when the intrinsic clearance is between 5–15 or the ratio is 2–10)
same,Clint (±SEM),human OCT1*1 (wild-type) [1],36.8 ± 7.32 µL/mg Protein/min
same,Km,[2],~17.8 µg/mL
same,uptake ratio by OCT1 (normalised to empty vector),human OCT1*1 (wild-type) [3]; 1 µM and 100 µM substance,up to 30
same,OCT1 transport category,human OCT1*1 (wild-type) [3],++ (very good substrates of OCTs that have an intrinsic clearance >15 or show an uptake ratio >10)
same,typical human maximum blood concentration,[4],about 30 µg/L
"Nc1nnc(-c2cccc(Cl)c2Cl)c(N)n1 [Lamotrigine, lamotrigine]",OCT3 transport category,OCT3,+/− (poor transport with a Clint < 5 or ratio between 1–2 with statistical significance (p < 0.05))
same,Clint (±SEM),human OCT1*1 (wild-type) [1],2.77 ± 5.66 µL/mg Protein/min
same,Km,hCMEC/D3,62 µM
"CNC(=C[N+](=O)[O-])NCCSCc1ccc(CN(C)C)o1 [Ranitidin, ranitidine]",OCT2 transport category,wild-type human OCT2,+ (good substrates of OCTs when the intrinsic clearance is between 5–15 or the ratio is 2–10)
same,OCT3 transport category,OCT3,"0 (no transport by OCT1, OCT2, and OCT3 occurred (i.e., no kinetic parameters or uptake ratio <2 without significance))"
same,Km,"OCT1 (wild-type, OCT1*1)",54.5 ± 7.2 µM
same,Vmax (±SEM),"human OCT1*1 (wild-type) [1]; net uptake (OCT1 minus empty vector), HEK293, 0.1-1000 µM substrate, Michaelis–Menten",1047 ± 123 pmol/mg Protein/min
same,OCT1 transport category,human OCT1*1 (wild-type) [3],++ (very good substrates of OCTs that have an intrinsic clearance >15 or show an uptake ratio >10)
B1,Km,[5],124 ± 136 µM
same,Km,[6],60 µM and 58.9 ± 5.1 µM
same,Vmax,[6],0.00217 µmol/min/mg
same,Vmax/Km,[6],36.8 µL/min/mg
same,Km,[7],363 ± 163 µM
same,Km,[8],881 ± 910 µM
same,Km,[9],3326 ± 1458 µM
same,Km,"[10]; other: OCT1 wild-type, rounded in discussion",1000 µM
same,Km,[10]; [17],1177 ± 744 µM
same,Vmax,[10]; [17],0.00412 µmol/min/mg
same,Vmax/Km,[10]; [17],3.5 µL/min/mg
same,Km,[11],1123 ± 335 µM
same,Vmax,[11],0.0069 µmol/min/mg
same,Vmax/Km,[11],6.15 µL/min/mg
same,Km,[12],142 ± 189 µM
same,Km,[13],232 ± 43.0 µM
same,Km,[14],1194 ± 193 µM
same,Vmax,[14],0.00307 µmol/min/mg
same,Vmax/Km,[14],2.57 µL/min/mg
same,Km,[15],647 ± 335.6 µM
same,Vmax,[15],0.00384 µmol/min/mg
same,Vmax/Km,[15],5.94 µL/min/mg
same,Km,[16],4.78 ± 1.24 µM
